Data reported in patent US20220306762A1 (CRYSTAL BIOSCIENCE, published 2022).

Legend:
[1] = target: T1, His-tagged cynomolgus monkey CD38 (ACRO Biosystems, CD8-05223 [sic]) (cynomolgus monkey, UniProt Q5VAN0 43-301); experiment: SPR (second run), His-tagged CD38
T1 construct: bought protein; used for ELISA coating and as SPR analyte; not shown: His tag

[2] = target: T2, His-tagged human CD38 (ACRO Biosystems CD8-H5224) (human, UniProt P28907 43-300); experiment: SPR (second run), His-tagged CD38
T2 construct: bought protein; used for ELISA coating and as SPR analyte; not shown: His tag

[3] = target: T1, His-tagged cynomolgus monkey CD38 (ACRO …); experiment: SPR, IgG
[4] = target: T2, His-tagged human CD38 (ACRO Biosystems …); experiment: SPR, IgG

B1: 40769p1.2.E3 (scFv, V domains shown)
VH: EVQLLESGGDLVQPGGSLRLSCGASGFTFSDHYMSWVRQAPGKGLEWVADISARGSNTWYADSVKGRFTISRDNSENTLYLQMNSLRAEDTAVYYCAKNWNYNYGMDVWGQGTTVTVSS
VL: QSVLTQAPSASGTPGQRVTISCSGSSIQNNYVSWYQQLPGTAPKLLIYRNFERPSGVPDRFSASKSGTSASLAISGLQSEDEADYYCASWDDSLNWVFGGGTKLTVL
Kd [1]: 0.0049 µM
Kd [2]: 0.00674 µM

B2: 40769p1.2.F9 (scFv, V domains shown)
VH: EVQLLESGGDLVQPGGSLRLSCGASGFTFSDHYMSWVRQAPGKGLEWVADISARGSNTWYADSVKGRFTISRDNSENTLYLQMNSLRAEDTAVYYCAKNWNYNYGMDVWGQGTTVTVSS
VL: QSVLTQAPSASGTPGQRVTISCSGSSIQNNYVSWYQQLPGTAPKLLIYRNFERPSGVPDRFSASKSGTSASLAISGLQSGDEADYYCASWDDSLNWVFGGGTKLTVL
Kd [1]: 0.00827 µM
Kd [2]: 0.00885 µM

B3: 40769p1.2.B4 (scFv, V domains shown)
VH: EVQLLESGGDLVQPGGSLRLSCGASGFTFSDHYMSWVRQAPGKGLEWVADISARGSNTWYADSVKGRFTISRDNSENTLYLQMNSLRAEDTAVYYCAKNWNYNYGMDVWGHGTTVTVSS
VL: QSVLTQAPSASGTPGQRVTISCSGSSIQNNYVSWYQQLPGTAPKLLIYRNFERPSGVPDRFSASKSGTSASLAISGLQSEDEADYYCASWDDSLNWVFGGGTKLTVL
Kd [1]: 0.00784 µM
Kd [2]: 0.00802 µM

B4: 40769p1.1.A2 (scFv, V domains shown)
VH: EVQLLESGGGLVQPGGSLRLSCAASGFLFDDYGMSWVRQAPGKGLEWVSAISYKGGSTYYADSVKGRFTISRDNSKNTLYLQMSSLRAEDTAVYYCAKDHKWNYYGMDVWGQGTTVTVSS
VL: QSVLTQPPSASGTPGQRVTISCSGSTSNIGNDNYVSWYQQLPGTAPRLLIYKDDQRPSGVPDRFSGSKSGTSASLAISGLQSEDEADYYCGTWDDRLNAWVFGGGTKLTVL
Kd [1]: 0.00072 µM
Kd [2]: 0.00082 µM

B5: 40769p2.1.E8 IgG (antibody, V domains shown)
VH: EVQLLESGGGLVQPGGSLRLSCTGFGFTFTDARMSWVRQAPGKGLEWVADISSYGDNTYYADSVKGRFTISRDNSANTLYVQMNSLRAEDTAVYYCAKRMEREVMTIKLDYHAMDVWGQGTTVTVSS
VL: QSVLTQTPSVSGTPGQRVTISCSGVFNIRNYVSWYQQLPGTAPKLLIFKDDQRPSGVPDRFSGSRSGTSASLAISGLQSEDEADYYCAAWDIFLNVWVFGGGTKLTVL
notes: IgG
Kd [3]: 0.00035 µM
Kd [4]: 0.00014 µM

B6: 40769p1.1.E2 (scFv, V domains shown)
VH: EVLLLESGGGLVQPGGSLRLSCAASGFTFSDYWMSWVRQAPGKGLEWVSTISISAGIIYYADSVKGRFTISRDNSKNTLYLQMNSLRAEDTAVYYCAKDNWNDYYGMDVWGQGTTVTVSS
VL: QSVLTQPPSASGTPGQRVTMSCSGNNQNIRDNYVYWYQQVPGTAPKLLIYKDDQRPSGVPDRFSGSKSGTSASLAISGLQSEDEADYYCATWDGSLKARVFGGGTKLTVL
Kd [1]: 0.00831 µM
Kd [2]: 0.00699 µM

B7: 40769p2.1.C1 IgG (antibody, V domains shown)
VH: EVQLLESGGGLVQPGGSLRLSCAASGFSFSDYWMNWVRQAPGKGLEWVSTISSGGNMIYYADSVKGRFTISRDNSKNTLYLRMNSLRAEDTAVYYCAKDNWNDYYGMDVWGQGTTVTVSS
VL: QSVLTQPPSASGTPGQRVTISCSGSSSNIRDNYVYWYQQVPGTAPKLLIYKDDQRPSGVPDRFSGSKSGSSASLAISGLQSEDEADYYCATWDGSLNARVFGGGTKLTVL
notes: IgG
Kd [3]: 0.0293 µM
Kd [4]: 0.0607 µM

B8: 40769p2.2.H4 IgG (antibody, V domains shown)
VH: EVQLLESGGGLVQPGGSLRLSCAASGFDFSSYWMNWVRQAPGKGLEWVSTISSGGSIIYYADSVKGQFTISRDNSKNTLYLQMNSLRAEDTAVYYCAKDNWNDYYGMDVWGQGTTVTVSS
VL: QSVPTQPPSASGTPGQRVTISCSGSSSNIRDNYVYWYQQVPGTAPKLLIYKDDQRPSGVPDRFSGSKSGTSASLAISGLQSEDEADYYCATWDGSLNARVFGGGTKLTVL
notes: IgG
Kd [3]: 0.167 µM
Kd [4]: 0.057 µM

B9: 40769p1.1.G10 (scFv, V domains shown)
VH: EVQLLESGGGLVQPGGSLRLSCAASGFTFSDYWMNWVRQAPGKGLEWVSTISSGGSMIYHADSVKGRFTISRDNSKNTLYLQMNSLRPEDTAVYYCAKDNWNDYYGMDVWGQGTTVTVSS
VL: QSVLTQPPSASGTPGQRVNISCSGSSSNIRYNYVYWYQQVPGTAPKLLIYKDDQRPSGVPDRFSGSESGTSASLAISGLQSEDEADYYCATWDGSLNARVFGGGTKLTVL
Kd [1]: 0.0721 µM
Kd [2]: 0.00171 µM

B10: 40769p1.1.H1 (scFv, V domains shown)
VH: EVQLLESGGGLVQPGGSLRLSCAASGFTFSDYWMNWVRQAPGKGLEWVSTISSGGSMIYHADSVKGRFTISRDNSKNTLYLQMNSLRPEDTAVYYCAKDNWNDYYGMDVWGQGTTVTVSS
VL: QSVLTQPPSASGTPGQRVNISCSGSSSNIRYNYVYWYQQVPGTAPKLLIYKDDQRPSGVPDRFSGSKSGTSASLAISELQSEDEADYYCATWDGSLNARVFGGGTKLTVL
Kd [1]: 0.0599 µM
Kd [2]: 0.0585 µM

B11: 40769p1.1.G5 (scFv, V domains shown)
VH: EVQLLESGGGFVQPGGSLRLSCAASGFNFNNAWMNWVRQAPGKGLEWVGIINGDGTNTYYADSVKGRFTISRDNSKNTLYLQMSSLRAEDTAIYYCARDNKLNDYYYAMDVWGQGTTVTV
VL: QSVLTQPSSASGTPGQRVTISCSGGSSNIHANYVYWYQQLPGTAPKLLIYRNSQRPSGVPDRFSGSKSGTSASLAISGLQSEDEADYYCGTWDNILNVWVFGGGTKLTVL
Kd [1]: 0.0281 µM
Kd [2]: 0.00756 µM

B12: 40769p1.1.G12 (scFv, V domains shown)
VH: EVQLLESGGGLVQPGGSLRLSCAASGFTFDDYVMSWVRQAPGKGLEWVSEISESDGSNKYYADSVKGRFIISRDNSKNTLYLQMNSLRAEDTAVYYCARLEPEKYYGMDVWGQGTTVTVSS
VL: QSVLTQPPSASGTPGQRVTISCSGSNSNIGNNLVSWYQQLPGTAPKLLIYRHDHRPSGVPDRFSGSKSGTSASLAISGLQSEDEADYYCATWDDSLNGRAFGGGTKLTVL
Kd [1]: 0.0153 µM
Kd [2]: 0.00281 µM

B13: 40769p2.2.C11 IgG (antibody, V domains shown)
VH: EVQLLESGGGLVQPGGSLRLSCAASGFTFSDYEMNWVRQAPGKGLEWVSSISITGSWTYYADSVKGRFTISRDNSKNTLYLQMNNLRAEDTAVYYCANYKSYYGMDVWGHGTTVTVSS
VL: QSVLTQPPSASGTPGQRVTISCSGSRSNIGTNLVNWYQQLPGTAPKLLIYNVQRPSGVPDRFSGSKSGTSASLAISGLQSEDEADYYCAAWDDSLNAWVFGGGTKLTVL
notes: IgG
Kd [3]: 0.00218 µM
Kd [4]: 0.00067 µM

B14: 40769p2.2.A6 IgG (antibody, V domains shown)
VH: EVQLLESGGGLVQPGGSLRLSCAASGFTFSDYEMNWVRQAPGKGLEWVSAISITGSWTYYADSVKGRFTISRDNSENTLYLQMNNLRAEDTAVYYCANYKSYYGMDVWGRGTTVTVSS
VL: QSVLTQPPSASGTPGQRVTISCSGSRSNIRNNLVNWYQQLPGTAPKLLIYNTQRPSGVPDRFSGSKSGTSASLAISGLQSEDEADYYCASWDASLNAWVFGGGTKLTVL
notes: IgG
Kd [3]: 0.0229 µM
Kd [4]: 0.0219 µM

B15: 40769p1.1.B8 (scFv, V domains shown)
VH: EVQLLESGGGLVQPGGSLRLSCAASGFTFEDYAMSWVRQAPGKGLEWVSVISSKGGSTSNADSVKGRFTISRDNSKNTLYLQMNSLRAEDTAVYYCAKGMERQYYSYNAMDVWGQGTTVTVSS
VL: QSVLTQPPSASGTPGQRVTISCSGSNSNIDVDYVYWYQQLPGTAPRLLIYKDDQRPSGVPDRFSGSKSGTSASLAISGLQSEDEADYYCATWDDNLNSWLFGGGTKLTVL
Kd [1]: 0.00329 µM
Kd [2]: 0.00025 µM

B16: 40769p2.2.D3 IgG (antibody, V domains shown)
VH: EVQLLESGGGLIQPGGSLRLSCTASGFDFSSYGMHWVRQAPGKGLEWVGIISDSGGTTYYADSVKGRFTISRDNSKNTLYLQMNSLRAEDTALYYCASYIMDVWGQGITVTVSS
VL: QSVLTQPPSASGTPGQRVTISCSGSNSNVGVNSVYWYQQLPGTAPKLLIYGSGRRPSGVPDRFSVSKSGTSASLAISGLQSEDEADYYCAAWDGGLNAWVFGGGTKLTVL
notes: IgG
Kd [3]: 0.348 µM
Kd [4]: 0.0413 µM

B17: 40617p1.1.F1 (scFv, V domains shown)
VH: KVQLLESGGGLVQPGGSLRLSCAASGFTFSSYSMTWVRQAPGKGLEWVSRIYNGGSTYYADSVKGRFTISRDNSKNTLYLQMNSLRAEDTAVYYCARDTYAIDVWGQGTTVTVSS
VL: EIVLTQSPATLSVSPGERATLSCRASQGIAGNLAWYQQKPGQAPRLLIYAASNRATGIPARFSGSGSGTDFTLTISSLQSEDFAVYYCQHYYDWPPYSFGGGTKVEIK
Kd [1]: 0.786 µM
Kd [2]: 0.119 µM

B18: 40596p2.1.B8 IgG (antibody, V domains shown)
VH: EVQLLESGGGLGQPGGSLRLSCAASGFDFSSYAMSWVRQAPGKGLEWVAGGGWSGSFIYYADSVKGRFTISRDNSKNTLYLQMNSLRAEDTAVYYCTRNPGFGEMDVWGQGTTVTVSS
VL: EIVLTQSPGTLSLSPGERATLSCRASQTVGSNLAWYQQKPGQAPRLLIHGANNRATDIPDRFSGSGSGTEFTLTVSSLQSEDFAIYYCQQYNSWPPLTFGGGTKVEIK
notes: IgG
Kd [3]: 0.159 µM
Kd [4]: 0.0185 µM

B19: 40769p2.1.E5 IgG (antibody, V domains shown)
VH: EVQLLESGGGLVQPGGSLRLSCTASAHIFKYNWMSWVRQAPGKGLEWVSSINSDGTITYYTDSVKGRFTISRDNSKNTLYLQMNSLRAEDTAVYYCAKDNWNDYAIDVWGQGTTVTVSS
VL: QSVLTQPPSASGTPGQRVTISCSGSRSDIRNNYVSWYQQLPGTAPKLLIYSNGQRPSGVPDRFSGSKSGTSASLAISGLQSEDEADYYCAIWDDSLNAWVFGGGTKLTVL
notes: IgG
Kd [3]: 0.467 µM
Kd [4]: 0.00118 µM

B20: 40769p2.2.G3 IgG (antibody, V domains shown)
VH: EVQLLESGGGLVQPGGSLRLSCTASGITFSRFNMFWVRQAPGKGLEFVASIRDDGSWTYYADSVKGQFTISRDNSKNTLYLQMNSLRAEDTAVYYCAKDYSSKDFIYHYVMDVWGQGTTVTVSS
VL: QSVLTQPPSASGTPGQRVTISCSGRNSNIGNNVVNWYQQLPGTAPKLLIYRNQERPSGVPDRFSGSKSGTSASLAISGLQSEDEADYYCASWDDSLNAWVFGRGTKLTVL
notes: IgG
Kd [3]: 0.205 µM
Kd [4]: 0.0504 µM
